Experimental data taken from US20140227287A1 (Astellas, published 2014).

Tests used:
[1] = biological target: T1, human βNGF (R&D Systems, Inc.) (human, UniProt P01138 122-241); assay: cell-based or functional assay
[2] = biological target: T2, mouse βNGF (R&D Systems, Inc.) (mouse, UniProt P01139 122-241); assay: cell-based or functional assay
[3] = biological target: T1, human βNGF (R&D Systems, Inc.); assay: competition ELISA: inhibition of biotin-labeled human βNGF binding to immobilized human trkA (Example 3)
[4] = biological target: T1, human βNGF (R&D Systems, Inc.); assay: isothermal titration calorimetry, human βNGF titrated into antibody in PBS, single site binding model
[5] = biological target: T2, mouse βNGF (R&D Systems, Inc.); assay: method of Example 3 with biotin-labeled mouse βNGF (Example 4)
[6] = biological target: T1, human βNGF (R&D Systems, Inc.); assay: NGF-trkA binding inhibition ELISA and cell assays (Examples 3, 6, 7)
Protocol: (§1) Inhibitory activity was measured by the following method. The human trkA (R&D Systems, Inc.) was added to a white Maxisorp 384 plate (Nunc) at 60 ng/well and immobilized by being incubated overnight at 4° C. The next day, the plate was washed once with the TBST wash solution, a blocking agent (TBST containing 20% Blocking One (Nacalai Tesque, Inc.)) was then added thereto, and the plate was left to stand at room temperature for an hour. Subsequently, a mixture obtained by mixing the biotin-labeled human βNGF (0.2 μg/ml) prepared as above with the antibody prepared in Example 2 was added to the trkA-immobilized plate having undergone blocking. […] After an hour of incubation at room temperature, the plate was washed three times with the TBST wash solution and then supplemented with APU4 (BioFx) which is a reagent detecting chemiluminescence, and the amount of chemiluminescence was measured by an EnVision counter (PerkinElmer Co., Ltd.).
(§2) The inhibitory activity was measured by the following method. […] By operating the FLIPR, a mixed solution of the antibody obtained in Example 2 and βNGF was added to the plate at 50 μl/well (final NGF concentration of 100 ng/ml), and the change in intracellular Ca²⁺ concentration was measured.

[7] = biological target: T1, human βNGF (R&D Systems, Inc.); assay: Fab fragments evaluated by the tests of Examples 3, 6 and 7
Protocol: as §1, §2

B1: tanezumab (antibody, V domains shown)
VH: QVQLQESGPGLVKPSETLSLTCTVSGFSLIGYDLNWIRQPPGKGLEWIGIIWGDGTTDYNSAVKSRVTISKDTSKNQFSLKLSSVTAADTAVYYCARGGYWYATSYYFDYWGQGTLVTVSS
VL: DIQMTQSPSSLSASVGDRVTITCRASQSISNNLNWYQQKPGKAPKLLIYYTSRFHSGVPSRFSGSGSGTDFTFTISSLQPEDIATYYCQQEHTLPYTFGQGTKLEIKR
B1 was tested, and the “IC50, inhibition of NGF-induced intracellular Ca2+ increase (method of Example 6)” value [1] was 0.17 µg/mL, the “IC50, inhibition of NGF-induced intracellular Ca2+ increase (method of Example 6)” value [2] was 0.23 µg/mL and the IC50 [3] was 0.41 µg/mL. The “-TΔS” value [4] was -5.73 kcal/mol, the Kd [4] was 20.4 nM and the “ΔG” value [4] was -10.5 kcal/mol. For the same binder, the “ΔH” value [4] was -4.76 kcal/mol.

B2: PEGylated 1-15(N52D)-Fab′ (Fab, V domains shown)
VH: QVQLQQWGAGLLKPSETLSLTCAVYGGSFSGYYWSWVRQPPGKGLEWIGEIDHSGSTNNNPSLKSRVTISVGTSKNQFSLKLSSVTAADTAVYYCSRDGGPESGMGAFDIWGQGTMVTVSS
VL: not shown
modifications: 40 kDa PEG (maleimide, SUNBRIGHT GL2-400MA) on Cys of the carboxyl terminal (C226 based on EU index; Cys at position 230 of SEQ ID NO:10)
For B2, the “IC50, inhibition of NGF-induced intracellular Ca2+ increase (method of Example 6)” value [2] was 0.069 µg/mL and the “neutralizing activity relative to tanezumab (method of Example 6)” value [2] was roughly 3.3 times.

B3: antibody 1-15 (chimeric antibody) (antibody, V domains shown)
VH: QVQLQQWGAGLLKPSETLSLTCAVYGGSFSGYYWSWVRQPPGKGLEWIGEINHSGSTNNNPSLKSRVTISVGTSKNQFSLKLSSVTAADTAVYYCSRDGGPESGMGAFDIWGQGTMVTVSS
VL: not shown
notes: Heavy chain variable region has an N-glycosylation motif at N52 (Kabat)
B3: binds [5]; binds [6].

B4: 1-15(N52D-A)-Fab′-5kPEG (Fab, V domains shown)
VH: QVQLQQWGAGLLKPSETLSLTCAVYGGSFSGYYWSWVRQPPGKGLEWIGEIDHSGSTNNNPSLKSRVTISVGTSKNQFSLKLSSVTAADTAVYYCSRDGGPESGMGAFDIWGQGTMVTVSS
VL: not shown
modifications: 5 kDa PEG conjugated by a procedure similar to Example 13 (hinge Cys)
B4 was tested, and the “IC50, inhibition of NGF-induced intracellular Ca2+ increase (method of Example 6, final NGF concentration 50 ng/ml)” value [1] was 0.03 µg/mL.

B5: Fab fragment of antibody 1-15 (papain digest) (Fab, V domains shown)
VH: QVQLQQWGAGLLKPSETLSLTCAVYGGSFSGYYWSWVRQPPGKGLEWIGEINHSGSTNNNPSLKSRVTISVGTSKNQFSLKLSSVTAADTAVYYCSRDGGPESGMGAFDIWGQGTMVTVSS
VL: not shown
notes: also called monovalent antibody fragment of 1-15
B5: binds [7].

B6: 1-15(N52D-A)-Fab′-10kPEG (Fab, V domains shown)
VH: QVQLQQWGAGLLKPSETLSLTCAVYGGSFSGYYWSWVRQPPGKGLEWIGEIDHSGSTNNNPSLKSRVTISVGTSKNQFSLKLSSVTAADTAVYYCSRDGGPESGMGAFDIWGQGTMVTVSS
VL: not shown
modifications: 10 kDa PEG conjugated by a procedure similar to Example 13 (hinge Cys)
In the case of B6, the “IC50, inhibition of NGF-induced intracellular Ca2+ increase (method of Example 6, final NGF concentration 50 ng/ml)” value [1] is reported as 0.028 µg/mL.
